Reference: PMC6929975, “A supramolecular protein chaperone for vaccine delivery” (Theranostics, 2020)
Starred links: 1 amine or outer side, 2 acyl side, 3 side chain; linkers in the order of their positions; H or OH if unused. Non-standard residues stand in square brackets, D forms with d. Groups on a side chain read outwards from the residue. *: point of attachment. Fbp = flurbiprofen, CC(C(=O)*)c1ccc(-c2ccccc2)c(F)c1; γGlu = O=C(O)[C@H](CCC(=O)[*:2])N[*:1]

Assays:
[1] = molecular target: T1, ovalbumin (UniProt P01012 1-386, fluorescent dye NT-647 (cysteine-reactive Monolith NT Protein Labelling Kit)); assay: MST; proteins labelled with NT-647 held at constant concentration; Comp. 1 or 2 varied from 0.25 μM to 10 mM; PBS with 0.05% Tween-20, pH 7.4; Monolith NT.115, standard glass capillaries; details: both partners purified
T1 construct: source: bought: InvivoGen (endotoxin free)
T1 sequence (looked up): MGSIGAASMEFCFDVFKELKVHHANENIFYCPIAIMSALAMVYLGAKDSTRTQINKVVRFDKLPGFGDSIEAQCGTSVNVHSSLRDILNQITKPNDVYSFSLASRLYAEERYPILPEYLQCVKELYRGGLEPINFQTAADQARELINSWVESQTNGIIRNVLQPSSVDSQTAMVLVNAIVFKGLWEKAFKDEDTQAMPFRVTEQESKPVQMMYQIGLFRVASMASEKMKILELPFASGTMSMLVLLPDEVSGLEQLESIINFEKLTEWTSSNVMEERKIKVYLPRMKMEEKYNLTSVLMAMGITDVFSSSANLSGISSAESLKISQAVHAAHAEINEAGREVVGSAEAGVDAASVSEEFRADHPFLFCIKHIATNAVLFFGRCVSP

[2] = molecular target: Hepatitis B surface antigen (hepatitis B virus, UniProt P03138 1-389, fluorescent dye NT-647 (cysteine-reactive Monolith NT Protein Labelling Kit)); assay: as above; details: both partners purified

B1: Fbp-G^DF^DF^DY^DK(γE)2-NH2 (peptide)
peptide: Fbp-G[dF][dF][dY][dK]([γGlu-γGlu])-NH2
SMILES: CC(C(=O)NCC(=O)N[C@H](Cc1ccccc1)C(=O)N[C@H](Cc1ccccc1)C(=O)N[C@H](Cc1ccc(O)cc1)C(=O)N[C@H](CCCCNC(=O)CC[C@H](NC(=O)CC[C@H](N)C(=O)O)C(=O)O)C(N)=O)c1ccc(-c2ccccc2)c(F)c1
notes: also called Comp; supramolecular protein chaperone; source: synthetic peptide (Fmoc SPPS on Rink resin, purified by HPLC)
Kd [1]: 83.3 µM | Kd [2]: 68 µM
